B1: Nse6 (subunit of the budding yeast Smc5/6 holo-complex) (natural protein)
chain: MGSVNSSPNEEFETVPDSQISGFDSPLIPTSVGSYFRDDDDDEKVHPNFISDPENDSLNSDEEFSSLENSDLNLSGAKAESGDDFDPILKRTIISKRKAPSNNEDEEIVKTPRKLVNYVPLKIFNLGDSFDDTITTTVAKLQDLKKEILDSPRSNKSIVITSNTVAKSELQKSIKFSGSIPEIYLDVVTKETISDKYKDWHFISKNCHYEQLMDLEMKDTAYSFLFGSSRSQGKVPEFVHLKCPSITNLLVLFGVNQEKCNSLKINYEKKENSRYDNLCTIFPVNKMLKFLMYFYSDDDNDDVREFFLKAFICLILDRKVFNAMESDHRLCFKVLELFNEAHFINSYFEIVDKNDFFLHYRLLQIFPHLQSALLRRRFSEKQGRTETIQQNIIKEFNEFFDCKNYKNLLYFILTMYGSKFIPFGPKCQVTEYFKDCILDISNETTNDVEISILKGILNLFSKIR
B2: Nse5 (subunit of the budding yeast Smc5/6 holo-complex) (natural protein)
chain: MDGALINSVLYVSPRNGAHYFVELTEKHLLAFEMLNSMCLLENYDHVLLFLECQFGKSHNLAVIPFDIILVLFTLSTLSEYYKEPILRANDPYNTSRETLSRRALKLLQKYLAILKEFDSEQYNLYDLELLRCQFFLAIDTLTPKKQKWGFDRFRRTKSESGVTYRQNASVDPELDQAKTFKNPYRSYISCLEQRNTILGNRLLNLKLNEPGEFINMILWTLSNSLQESTPLFLSSHEIWMPLLEILIDLFSCRQDYFIQHEVAQNVSKSLFVQRLSESPLAVFFESLNTRNFANRFSEYVFLNCDYKLPSDNYATPVHPVYNGENTIVDTYIPTIKCSPLYKSQKSLALRRKLIGSCFKLLLRVPDGHRLITPRIVADDVIQGISRTLASFNDILQFKKFFMTENLSQESYFIPLLAEGTLSEILKDTQECVVILTLVENLSDGVSFCNEVIGLVKSKCFAFTEQCSQASYEEAVLNIEKCDVCLLVLLRYLLHLIGTEAILDAKEQLEMLHAIEKNDSGRRQWAKALNLGNDPPLLYPIVSQMFGVHDKSVIIE
B3: Nse2 SUMO ligase (subunit of the budding yeast Smc5/6 holo-complex) (natural protein)
chain: MALNDNPIPKSVPLHPKSGKYFHNLHARDLSNIYQQCYKQIDETINQLVDSTSPSTIGIEEQVADITSTYKLLSTYESESNSFDEHIKDLKKNFKQSSDACPQIDLSTWDKYRTGELTAPKLSELYLNMPTPEPATMVNNTDTLKILKVLPYIWNDPTCVIPDLQNPADEDDLQIEGGKIELTCPITCKPYEAPLISRKCNHVFDRDGIQNYLQGYTTRDCPQAACSQVVSMRDFVRDPIMELRCKIAKMKESQEQDKRSSQAIDVL
B4: Smc5 (subunit of the budding yeast Smc5/6 holo-complex) (natural protein)
chain: MTSLIDLGRYVERTHHGEDTEPRSKRVKIAKPDLSSFQPGSIIKIRLQDFVTYTLTEFNLSPSLNMIIGPNGSGKSTFVCAVCLGLAGKPEYIGRSKKVEDFIKNGQDVSKIEITLKNSPNVTDIEYIDARDETIKITRIITRSKRRSDYLINDYQVSESVVKTLVAQLNIQLDNLCQFLSQERVEEFARLKSVKLLVETIRSIDASLLDVLDELRELQGNEQSLQKDLDFKKAKIVHLRQESDKLRKSVESLRDFQNKKGEIELHSQLLPYVKVKDHKEKLNIYKEEYERAKANLRAILKDKKPFANTKKTLENQVEELTEKCSLKTDEFLKAKEKINEIFEKLNTIRDEVIKKKNQNEYYRGRTKKLQATIISTKEDFLRSQEILAQTHLPEKSVFEDIDIKRKEIINKEGEIRDLISEIDAKANAINHEMRSIQRQAESKTKSLTTTDKIGILNQDQDLKEVRDAVLMVREHPEMKDKILEPPIMTVSAINAQFAAYLAQCVDYNTSKALTVVDSDSYKLFANPILDKFKVNLRELSSADTTPPVPAETVRDLGFEGYLSDFITGDKRVMKMLCQTSKIHTIPVSRRELTPAQIKKLITPRPNGKILFKRIIHGNRLVDIKQSAYGSKQVFPTDVSIKQTNFYQGSIMSNEQKIRIENEIINLKNEYNDRKSTLDALSNQKSGYRHELSELASKNDDINREAHQLNEIRKKYTMRKSTIETLREKLDQLKREARKDVSQKIKDIDDQIQQLLLKQRHLLSKMASSMKSLKNCQKELISTQILQFEAQNMDVSMNDVIGFFNEREADLKSQYEDKKKFVKEMRDTPEFQSWMREIRSYDQDTKEKLNKVAEKYEEEGNFNLSFVQDVLDKLESEIAMVNHDESAVTILDQVTAELRELEHTVPQQSKDLETIKAKLKEDHAVLEPKLDDIVSKISARFARLFNNVGSAGAVRLEKPKDYAEWKIEIMVKFRDNAPLKKLDSHTQSGGERAVSTVLYMIALQEFTSAPFRVVDEINQGMDSRNERIVHKAMVENACAENTSQYFLITPKLLTGLHYHEKMRIHCVMAGSWIPNPSEDPKMIHFGETSNYSFD

For test [1], the target named is B2. Nature of the test: cross-linking.
The target in test [2] is T1, Smc6 (subunit of the budding yeast Smc5/6 holo-complex) (budding yeast, UniProt Q12749 1-1114).
T1 sequence: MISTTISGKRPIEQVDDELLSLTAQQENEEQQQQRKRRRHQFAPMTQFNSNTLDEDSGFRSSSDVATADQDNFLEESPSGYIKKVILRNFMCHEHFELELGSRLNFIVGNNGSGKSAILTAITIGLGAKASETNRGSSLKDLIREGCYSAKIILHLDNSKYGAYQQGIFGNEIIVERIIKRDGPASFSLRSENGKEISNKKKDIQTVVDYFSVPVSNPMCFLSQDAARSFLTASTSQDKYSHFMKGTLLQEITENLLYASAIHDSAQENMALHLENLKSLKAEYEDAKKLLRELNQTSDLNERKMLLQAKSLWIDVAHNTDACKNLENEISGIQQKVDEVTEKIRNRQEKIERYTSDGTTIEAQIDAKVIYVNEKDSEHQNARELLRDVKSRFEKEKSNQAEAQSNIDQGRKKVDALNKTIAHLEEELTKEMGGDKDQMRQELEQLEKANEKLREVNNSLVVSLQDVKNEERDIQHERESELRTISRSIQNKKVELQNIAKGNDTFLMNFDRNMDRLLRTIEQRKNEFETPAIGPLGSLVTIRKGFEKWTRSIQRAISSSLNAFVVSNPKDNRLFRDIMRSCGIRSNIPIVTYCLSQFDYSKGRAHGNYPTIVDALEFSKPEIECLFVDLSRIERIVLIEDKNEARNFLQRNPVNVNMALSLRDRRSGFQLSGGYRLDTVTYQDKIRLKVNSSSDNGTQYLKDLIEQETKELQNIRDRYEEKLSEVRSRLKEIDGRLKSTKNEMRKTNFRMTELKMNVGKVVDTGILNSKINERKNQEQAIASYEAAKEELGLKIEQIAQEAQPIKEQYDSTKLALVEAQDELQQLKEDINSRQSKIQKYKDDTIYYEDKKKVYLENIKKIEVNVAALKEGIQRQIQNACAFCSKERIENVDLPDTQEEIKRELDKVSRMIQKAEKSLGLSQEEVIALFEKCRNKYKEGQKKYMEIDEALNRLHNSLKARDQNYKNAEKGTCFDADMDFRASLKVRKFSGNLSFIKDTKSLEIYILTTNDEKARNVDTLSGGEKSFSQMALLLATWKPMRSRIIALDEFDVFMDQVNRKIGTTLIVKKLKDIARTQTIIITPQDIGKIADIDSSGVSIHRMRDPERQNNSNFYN
Nature of the test: cross-linking.

For test [3], the target named is B4. Nature of the test: cross-linking.
Test [4] has as its target B1. Nature of the test: cross-linking.
Test [5] deals with T1, Smc6 (subunit of the budding yeast …). Nature of the test: negative stain EM.

As to B1, the binding result in test [1], in test [2] and in test [3] was “binds” each time.
Turning to B2, the binding result in test [2] and in test [3] was “binds” in each case.
For B3, the binding result in test [2], in test [4] and in test [3] was “binds” throughout.
Consider B4, for which, in test [5], the binding result is reported as “binds”.

The values above are taken from doi:10.1101/2020.12.31.424863 (bioRxiv, 2020).
